T1: Aurora-A kinase domain 122–403 C290A,C393A (UniProt O14965 122-403, C290A | C393A)
T1 construct: Aurora-A Ser/Thr kinase, kinase domain residues 122-403 with C290A and C393A; also called Aurora-A 122–403, C290A, C393A
T1 sequence (looked up): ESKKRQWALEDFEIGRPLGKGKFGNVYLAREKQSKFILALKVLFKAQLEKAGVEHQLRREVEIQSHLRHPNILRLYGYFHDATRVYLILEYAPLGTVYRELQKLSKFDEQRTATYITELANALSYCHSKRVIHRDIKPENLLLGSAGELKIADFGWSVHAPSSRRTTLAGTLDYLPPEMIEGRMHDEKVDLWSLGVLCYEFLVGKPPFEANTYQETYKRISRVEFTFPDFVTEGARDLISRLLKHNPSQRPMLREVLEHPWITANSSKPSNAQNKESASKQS


Tests used:
[1] = molecular target: N-myc peptide 47-66 (Homo sapiens) (UniProt P04198); conditions: cited from earlier work
[2] = molecular target: T1, Aurora-A kinase domain 122–403 …; assay: NMR titration; 1H-15N HSQC of 15N-labelled N-myc constructs (150-315 uM); unlabelled Aurora-A kinase domain (305-400 uM stock) added up to [N-myc]:[Aurora-A] 1:1.4; 20 mM (K/H)3PO4 pH 6.5, 150 mM NaCl, 2 mM beta-mercaptoethanol, 1% glycerol, 5 mM MgCl2, 5 mM ADP; 25°C stated for N-myc TAD; conditions: both partners purified

Chain of Fbxw7–Skp1 (Q969H0 whole entry): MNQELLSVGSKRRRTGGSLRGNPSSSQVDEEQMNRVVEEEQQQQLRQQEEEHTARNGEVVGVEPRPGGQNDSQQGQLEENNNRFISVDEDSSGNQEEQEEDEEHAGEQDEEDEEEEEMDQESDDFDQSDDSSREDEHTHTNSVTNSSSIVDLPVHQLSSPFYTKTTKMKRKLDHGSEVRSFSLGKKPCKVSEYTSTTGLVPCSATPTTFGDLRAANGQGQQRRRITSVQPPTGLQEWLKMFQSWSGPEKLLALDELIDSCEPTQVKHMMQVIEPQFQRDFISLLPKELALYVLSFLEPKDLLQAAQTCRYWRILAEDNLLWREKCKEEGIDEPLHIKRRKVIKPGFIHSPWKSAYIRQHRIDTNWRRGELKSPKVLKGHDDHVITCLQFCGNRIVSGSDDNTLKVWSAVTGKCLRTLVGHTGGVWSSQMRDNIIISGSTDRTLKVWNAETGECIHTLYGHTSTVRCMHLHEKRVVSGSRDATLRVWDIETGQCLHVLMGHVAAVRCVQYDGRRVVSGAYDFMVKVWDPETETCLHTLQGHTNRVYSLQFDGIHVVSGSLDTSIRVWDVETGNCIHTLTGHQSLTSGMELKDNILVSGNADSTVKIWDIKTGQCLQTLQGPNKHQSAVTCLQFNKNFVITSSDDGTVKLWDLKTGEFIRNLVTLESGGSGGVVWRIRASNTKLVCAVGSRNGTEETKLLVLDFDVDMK
Chain of Fbxw7–Skp1 (P63208 2-163, further chain): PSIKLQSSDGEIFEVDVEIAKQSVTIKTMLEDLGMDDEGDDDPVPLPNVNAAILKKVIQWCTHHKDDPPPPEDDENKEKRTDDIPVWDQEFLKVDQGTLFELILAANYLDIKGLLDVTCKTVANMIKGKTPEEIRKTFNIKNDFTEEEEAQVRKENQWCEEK

Row | Molecule | Kd [1] [nM] | binding result [2]
1 | Fbxw7–Skp1 (from UniProt Q969H0) | < 10 | –
2 | N-myc_(1–137) TAD (domain or fragment, whole N-myc is said to have 464 residues; 15N-labelled for the NMR titration; also called N-myc TAD; not shown: His-NusA, N-terminal, cleaved) GAMMPSCSTSTMPGMICKNPDLEFDSLQPCFYPDEDDFYFGGPDSTPPGEDIWKKFELLPTPPLSPSRGFAEHSSEPPSWVTEMLLENELWGSPAEEDAFGLGGLGGLTPNPVILQDCMWSGFSAREKLERAVSEKLQHG | – | binds
3 | N-myc_(64–137) (domain or fragment, 15N-labelled for the NMR titration; also called C-terminal truncation of the TAD; not shown: His-NusA, N-terminal, cleaved) GAMGSRGFAEHSSEPPSWVTEMLLENELWGSPAEEDAFGLGGLGGLTPNPVILQDCMWSGFSAREKLERAVSEKLQHG | – | binds

Source: article PMC11555651 (Biochemical Journal, 2024)
